The target in this experiment is T1, Fc-tagged receptor-binding domain (RBD) of the SARS-CoV-2 spike (S) protein (SARS-CoV-2, Wuhan-Hu-1 (GenBank …, UniProt P0DTC2)).
T1 construct: also called SARS-CoV-2 RBD; SARS-CoV-2 S RBD-Fc; not shown: Fc, C-terminal, kept
As to the kind of experiment: BLI; Octet Red96e; Fc-tagged RBD loaded onto the biosensor (streptavidin biosensors as printed), Fab in solution; 1x PBS pH 7.4, 0.01% w/v BSA, 0.002% v/v Tween 20; 60 s association, 60 s dissociation; 1:1 binding model. Conditions: both partners purified.

B1: COVA2-20 Fab, F58 variant (heavy chain Y58F) (Fab, V domains shown)
VH: EVQLVESGGGLIQPGGSLRLSCAASGFTVSSNYMSWVRQAPGKGLEWVSVIYSGGSTFYADSVKGRFTISRDNSKNTLYLQMNSLRAEDTAVYYCASPLLLTPPDYYYYMDVWGKGTMVTVSS
VL: DVVMTQSPSSLSVSVGDRVTITCRASQGIRNDLGWYQQKPGKAPKRLIYAASSLQSGVPSRFSGSGSGTEFTLTISSLQPEDFATYYCLQHNSYLWTFGQGTKLEIK
notes: also called COVA2-20 F58
Regarding B1, the binding result is “binds”.

B2: CC12.3 Fab, Y58 variant (heavy chain F58Y) (Fab, V domains shown)
VH: QVQLVESGGGLIQPGGSLRLSCAASGFTVSSNYMSWVRQAPGKGLEWVSVIYSGGSTYYADSVKGRFTISRDNSKSTLYLQMNSLRVEDTAVYYCARDFGDFYFDYWGQGTLVTVSS
VL: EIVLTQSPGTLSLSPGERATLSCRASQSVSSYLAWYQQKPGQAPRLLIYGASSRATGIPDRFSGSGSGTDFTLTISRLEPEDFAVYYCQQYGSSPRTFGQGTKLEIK
notes: also called CC12.3 Y58
In the case of B2, the binding result is on record as “binds”.
